In paper PMC10380284, “Investigating the Prevalence of RNA-Binding Metabolic Enzymes in E. coli” (International Journal of Molecular Sciences, 2023):

Legend:
[1] = molecular target: T1, quinone oxidoreductase (QorA) (Escherichia coli, UniProt P28304); test: NMR shift experiment; also competition with RNA in EMSA and MST; type: binding; conditions: 10-20 mM NADPH in the EMSA / MST competition with yffO mRNA fragment; pH 7.5
T1 construct: full-length ORF from ASKA library (pCA24N), N-terminal His-tag, expressed in E. coli BL21-Gold (DE3), IMAC and size exclusion
T1 sequence (P28304 1-327): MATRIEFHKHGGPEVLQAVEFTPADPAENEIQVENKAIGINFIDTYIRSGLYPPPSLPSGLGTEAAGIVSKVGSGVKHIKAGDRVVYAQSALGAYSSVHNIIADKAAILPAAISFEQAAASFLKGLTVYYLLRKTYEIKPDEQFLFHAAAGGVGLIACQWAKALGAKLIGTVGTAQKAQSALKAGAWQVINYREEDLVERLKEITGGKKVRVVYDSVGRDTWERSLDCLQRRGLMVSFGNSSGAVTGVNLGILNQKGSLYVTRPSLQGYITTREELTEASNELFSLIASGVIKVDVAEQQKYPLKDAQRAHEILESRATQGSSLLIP

[2] = molecular target: T2, Quinone oxidoreductase QorA (Escherichia coli K12, UniProt P28304 1-327); test: MST; 0.05% Tween-20; 10 nM RNA; 50 mM Tris (HEPES for PykF), 80 mM NaCl, 10 mM KCl, 0.8 mM MgCl2, 0.5 mM DTT, pH 7.5, 30 min at 37 C (EMSA); MST same buffer + 0.05% Tween-20; conditions: protein: recombinant; tags: N-terminal His (pCA24N, ASKA); label: Cy5
T2 sequence: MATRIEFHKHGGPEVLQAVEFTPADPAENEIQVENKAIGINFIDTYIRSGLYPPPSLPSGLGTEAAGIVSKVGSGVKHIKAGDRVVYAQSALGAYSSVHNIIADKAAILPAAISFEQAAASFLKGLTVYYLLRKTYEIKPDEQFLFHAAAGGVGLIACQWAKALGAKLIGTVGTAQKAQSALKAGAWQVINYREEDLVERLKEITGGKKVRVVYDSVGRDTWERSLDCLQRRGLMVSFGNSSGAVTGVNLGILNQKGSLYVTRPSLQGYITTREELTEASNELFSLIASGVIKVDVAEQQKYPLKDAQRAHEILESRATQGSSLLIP

MS2 phage coat protein = MS2 phage coat protein (bacteriophage MS2, UniProt P03612 2-130); test: EMSA; 0.34-34 uM protein, 700 nM RNA; 50 mM Tris (HEPES for PykF), 80 mM NaCl, 10 mM KCl, 0.8 mM MgCl2, 0.5 mM DTT, pH 7.5, 30 min at 37 C (EMSA); MST same buffer + 0.05% Tween-20; conditions: protein: recombinant; chain copies: 2; label: 5' 32P; hairpin
Sequence of MS2 phage coat protein (P03612 2-130): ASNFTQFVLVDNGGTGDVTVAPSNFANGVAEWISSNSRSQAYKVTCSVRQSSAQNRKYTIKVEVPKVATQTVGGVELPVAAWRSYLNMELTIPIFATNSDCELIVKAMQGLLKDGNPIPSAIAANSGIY

[3] = molecular target: T3, Phosphoglycerate kinase Pgk (Escherichia coli K12, UniProt P0A799 1-387); test: EMSA; 30 uM Pgk, 7 uM RNA; stronger than hairpins; 50 mM Tris (HEPES for PykF), 80 mM NaCl, 10 mM KCl, 0.8 mM MgCl2, 0.5 mM DTT, pH 7.5, 30 min at 37 C (EMSA); MST same buffer + 0.05% Tween-20; conditions: protein: recombinant; tags: N-terminal His (pCA24N, ASKA); label: 5' 32P; linear
T3 sequence: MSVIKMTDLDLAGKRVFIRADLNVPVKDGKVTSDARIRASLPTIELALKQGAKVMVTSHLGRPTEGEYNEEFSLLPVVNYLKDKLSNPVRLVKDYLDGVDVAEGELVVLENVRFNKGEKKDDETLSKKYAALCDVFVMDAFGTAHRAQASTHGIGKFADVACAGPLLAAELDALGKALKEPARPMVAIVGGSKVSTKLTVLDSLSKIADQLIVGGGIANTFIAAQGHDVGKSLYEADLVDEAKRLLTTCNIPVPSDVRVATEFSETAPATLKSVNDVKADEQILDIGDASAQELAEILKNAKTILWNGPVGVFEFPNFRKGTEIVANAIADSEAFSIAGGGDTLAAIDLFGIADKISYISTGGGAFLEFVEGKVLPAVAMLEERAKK

[4] = molecular target: T2, Quinone oxidoreductase QorA; test: EMSA; 350 nM RNA; 50 mM Tris (HEPES for PykF), 80 mM NaCl, 10 mM KCl, 0.8 mM MgCl2, 0.5 mM DTT, pH 7.5, 30 min at 37 C (EMSA); MST same buffer + 0.05% Tween-20; conditions: protein: recombinant; tags: N-terminal His (pCA24N, ASKA); label: 5' 32P

In the case of NC(=O)C1=CN([C@@H]2O[C@H](COP(=O)(O)OP(=O)(O)OC[C@H]3O[C@@H](n4cnc5c(N)ncnc54)[C@H](OP(=O)(O)O)[C@@H]3O)[C@@H](O)[C@H]2O)C=CC1 [NADPH], the “NMR shift experiment; also competition with RNA in EMSA and MST” value [1] is reported as “NMR shift experiments that revealed larger peak shifts for the QorA-NADPH complex”.

Molecule GGAGCAUAUGGACUUCAGGGAAGGGAU (ssRNA) [Cy5-yffO mRNA fragment] has a Kd [2] of ~7 µM.

GCACGCGUAUUCACUGAGCAUCAGCCAGACUGUGU (ssRNA) [rffG mRNA fragment]: binds (MS2 phage coat protein).

AGGACAAAAACAA (ssRNA) [A-rich linear control RNA]: binds [3].

For GGAGCAUAUGGACUUCAGGGAAGGGAU (ssRNA) [yffO mRNA fragment, 27 nt], the Kd [4] was ~7 µM.
